Patent publication US20170114347

Assays:
Assay in all cases: cell_activity
[1] = tested on: TALE-activator Ntf3-3 (Xanthomonas); conditions: NTF3 mRNA in 293 cells; p65 version weaker
[2] = tested on: IFNa1 TALE-VP16 (Xanthomonas); conditions: CITED; cited from earlier work
[3] = tested on: TALE-activator Ntf3-5 (Xanthomonas); conditions: NTF3 mRNA in 293 cells; p65 version weaker
[4] = tested on: TALE-activator Ntf3-2 (Xanthomonas); conditions: NTF3 mRNA in 293 cells; p65 version weaker
[5] = tested on: IFNb1 TALE-VP16 (Xanthomonas); conditions: CITED; cited from earlier work
[6] = tested on: KLF4 TALE-VP16 (Xanthomonas); conditions: CITED; cited from earlier work
[7] = tested on: PUMA TALE-VP16 (Xanthomonas); conditions: CITED; cited from earlier work
[8] = tested on: OSGIN2 TALE-VP64 (Xanthomonas); conditions: CITED; U-2OS; cited from earlier work
[9] = tested on: NTF3 TALE-VP16 (Miller 2011) (Xanthomonas); conditions: CITED; HEK293; cited from earlier work
[10] = tested on: SOX2 TALE-VP16 (Xanthomonas); conditions: CITED; cited from earlier work
[11] = tested on: TALE-activator Ntf3-4 (Xanthomonas); conditions: NTF3 mRNA in 293 cells; p65 version weaker
[12] = tested on: ZC3H10 TALE-VP64 (Xanthomonas); conditions: CITED; U-2OS; cited from earlier work
[13] = tested on: TALE-activator Ntf3-1 (Xanthomonas); conditions: NTF3 mRNA in 293 cells; weakest about 1000-fold; p65 version weaker

Sequence: TTCCCCTGCTGGGTAGTG (double strand) [Ntf3-3 site]
- activity (fold activation (approx.)) [1]: > 1000

Sequence: TGGAAAGTGGCCCAGAAGCAT (double strand) [IFNa1 site]
- activity (fold activation) [2]: 3.1

Sequence: TCCCTCAATCTGGGAAAG (double strand) [Ntf3-5 site]
- activity (fold activation (approx.)) [3]: > 1000

Sequence: TCCGAACAGCTCCGCGCA (double strand) [Ntf3-2 site]
- activity (fold activation (approx.)) [4]: > 1000

Sequence: TCTCATATAAATAGGCCAT (double strand) [IFNb1 site]
- activity (fold activation) [5]: 3.5

Sequence: TTCTTACTTATAAC (double strand) [KLF4 site]
- activity (fold activation) [6]: 2.2

Sequence: TACTTGGAGGCAGTCAAGT (double strand) [PUMA site]
- activity (fold activation) [7]: 1.5

Sequence: TCCTCCCCACCTTTAATTTT (double strand) [OSGIN2 site]
- activity (fold activation) [8]: 4.8

Sequence: TGGAGCCATCTGGCCGGGT (double strand) [NTF3 site]
- activity (fold activation) [9]: 30

Sequence: TTTATTCCCTGACA (double strand) [SOX2 site]
- activity (fold activation) [10]: 5.5

Sequence: TACGCCTCAGACCTGATC (double strand) [Ntf3-4 site]
- activity (fold activation (approx.)) [11]: > 1000

Sequence: TACCATATCCCATCCAACTC (double strand) [ZC3H10 site]
- activity (fold activation) [12]: 1.3

Sequence: TTCTGTTCACGGGACTCA (double strand) [Ntf3-1 site]
- activity (fold activation (approx.)) [13]: > 1000
